The labels stand for the following.
T1: rat pIgR extracellular domain (rat, UniProt P15083 19-643)
T1 construct: extracellular domain
T1 sequence (looked up): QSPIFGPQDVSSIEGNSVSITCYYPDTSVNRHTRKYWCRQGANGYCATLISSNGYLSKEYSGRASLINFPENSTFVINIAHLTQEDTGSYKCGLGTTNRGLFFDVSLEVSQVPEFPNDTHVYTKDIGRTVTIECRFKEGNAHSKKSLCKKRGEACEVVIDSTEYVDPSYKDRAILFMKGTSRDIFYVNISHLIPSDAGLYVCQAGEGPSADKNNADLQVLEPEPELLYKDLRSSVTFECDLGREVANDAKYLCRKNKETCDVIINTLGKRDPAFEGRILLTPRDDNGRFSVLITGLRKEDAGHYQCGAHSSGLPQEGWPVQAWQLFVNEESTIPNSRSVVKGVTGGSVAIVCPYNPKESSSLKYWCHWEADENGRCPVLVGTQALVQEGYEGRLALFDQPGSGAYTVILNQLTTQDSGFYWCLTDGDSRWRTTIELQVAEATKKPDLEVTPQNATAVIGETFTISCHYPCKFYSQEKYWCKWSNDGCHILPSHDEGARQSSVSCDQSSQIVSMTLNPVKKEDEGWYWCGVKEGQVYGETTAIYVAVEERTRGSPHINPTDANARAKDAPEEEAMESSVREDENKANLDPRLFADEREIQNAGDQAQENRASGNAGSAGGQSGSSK

T2: mouse pIgR extracellular domain (ECD) (mouse, UniProt O70570 19-645)
T2 construct: Bought from R&D Systems (Cat 2800-PG-050); also called mpIgR ECD
T2 sequence: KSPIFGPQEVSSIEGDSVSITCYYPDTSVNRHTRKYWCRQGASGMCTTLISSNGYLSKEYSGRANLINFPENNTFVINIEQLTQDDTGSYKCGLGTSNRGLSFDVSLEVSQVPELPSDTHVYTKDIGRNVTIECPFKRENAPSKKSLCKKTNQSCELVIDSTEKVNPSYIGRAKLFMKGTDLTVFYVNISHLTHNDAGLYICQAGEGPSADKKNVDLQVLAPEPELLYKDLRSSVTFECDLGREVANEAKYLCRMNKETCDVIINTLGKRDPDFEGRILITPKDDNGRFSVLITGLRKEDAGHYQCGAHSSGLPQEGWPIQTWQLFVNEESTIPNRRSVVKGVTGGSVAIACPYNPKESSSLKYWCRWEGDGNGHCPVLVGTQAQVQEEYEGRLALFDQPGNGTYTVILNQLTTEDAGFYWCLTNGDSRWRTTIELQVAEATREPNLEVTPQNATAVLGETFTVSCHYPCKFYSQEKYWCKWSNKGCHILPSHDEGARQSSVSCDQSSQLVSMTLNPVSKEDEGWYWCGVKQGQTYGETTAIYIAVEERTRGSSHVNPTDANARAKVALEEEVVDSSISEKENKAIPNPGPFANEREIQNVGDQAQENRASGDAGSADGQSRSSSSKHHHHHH

B1: 01A06R3LS VHH Mono-Fc (Fc fusion)
chain: EVQLVESGGGVVQAEDSLRLSCAASGLPFSSSRMGWFRQAPGKEREFVAAIGWSGRSTYKYYADSVKGRFTVSGDNAKKTLDLQMKDLKPEDTAVYYCAAHPDYYGDPRTSGAYRYWGQGTQVTVSSSPAPELLGGPSVFLFPPKPKDTLMISRTPEVTCVVVDVSHEDPEVKFNWYVDGVEVHNAKTKPREEQYNSTYRVVSVLTVLHQDWLNGKEYKCKVSNKALPAPIEKTISKAKGQPREPQVYTKPPSREEMTKNQVSLSCLVKGFYPSDIAVEWESNGQPENNYKTTVPVLDSDGSFRLASYLTVDKSRWQQGNVFSCSVMHEALHNHYTQKSLSLSPGK
B2: 01B07R3L VHH Mono-Fc (Fc fusion)
chain: B1 chain with A40V, K60R, A63D, K79N, D87G, H101D, D103N, P108V, A113T, R115Q
B3: 01C12R2 VHH Mono-Fc (Fc fusion)
chain: EVQLVESGGGLVQAGGSLRLSCAASGRTFGSYSMGWFRQAPGKEREFVGAISWSGSSTYKYYEDSVKGRFTISRDNAKNTVPLQMNSLKPEDTGVYFCGGTMERRDPRRTSAYDYWGQGTLVTVSSSPAPELLGGPSVFLFPPKPKDTLMISRTPEVTCVVVDVSHEDPEVKFNWYVDGVEVHNAKTKPREEQYNSTYRVVSVLTVLHQDWLNGKEYKCKVSNKALPAPIEKTISKAKGQPREPQVYTKPPSREEMTKNQVSLSCLVKGFYPSDIAVEWESNGQPENNYKTTVPVLDSDGSFRLASYLTVDKSRWQQGNVFSCSVMHEALHNHYTQKSLSLSPGK
B4: 01G09R3LS VHH Mono-Fc (Fc fusion)
chain: EVQLVESGGGLVQAGDSLRLSCAASGRTFPTYAMGWFRQAPGKEREFVATIRWSGSTQYKYYADFVKGRFTISRDNAKNTVYLQMDSLKPEDTAVYYCAATTLLTDPRALNAYAYWGQGTQVTVSSSPAPELLGGPSVFLFPPKPKDTLMISRTPEVTCVVVDVSHEDPEVKFNWYVDGVEVHNAKTKPREEQYNSTYRVVSVLTVLHQDWLNGKEYKCKVSNKALPAPIEKTISKAKGQPREPQVYTKPPSREEMTKNQVSLSCLVKGFYPSDIAVEWESNGQPENNYKTTVPVLDSDGSFRLASYLTVDKSRWQQGNVFSCSVMHEALHNHYTQKSLSLSPGK
B5: 01A07R3LS VHH Mono-Fc (Fc fusion)
chain: B4 chain with E1Q, T105G, A112E
B6: 01B04R3L VHH Mono-Fc (Fc fusion)
chain: EVQLVESGGGLVQAGDSLRLSCAASGRTFTTYVMGWFRQAPGKEREFVATIAWSGSTNYKYYADSVKGRFTISRDNAKNTVYLRMNSLKPEDTAVYYCAASTVLTDPRRLNEYANWGQGTLVTVSSSPAPELLGGPSVFLFPPKPKDTLMISRTPEVTCVVVDVSHEDPEVKFNWYVDGVEVHNAKTKPREEQYNSTYRVVSVLTVLHQDWLNGKEYKCKVSNKALPAPIEKTISKAKGQPREPQVYTKPPSREEMTKNQVSLSCLVKGFYPSDIAVEWESNGQPENNYKTTVPVLDSDGSFRLASYLTVDKSRWQQGNVFSCSVMHEALHNHYTQKSLSLSPGK
B7: 01E04R3LS VHH Mono-Fc (Fc fusion)
chain: B6 chain with E44D, A52T, S65P, R84Q, A99T, A100S, L104V, R109K, N115Y
B8: 01B02R2L VHH Mono-Fc (Fc fusion)
chain: EVQLVESGGGLVQAGGSLKLACAASGLTFSSYRMGWFRQAPGKEREFVAAIDWNGRGTYYRYYADSVKGRFTISRDNAKNTMCLQMNSLKPEDTAVYYSAIDSRTSIDPRTSGHYRYWGQGTLVTVSSSPAPELLGGPSVFLFPPKPKDTLMISRTPEVTCVVVDVSHEDPEVKFNWYVDGVEVHNAKTKPREEQYNSTYRVVSVLTVLHQDWLNGKEYKCKVSNKALPAPIEKTISKAKGQPREPQVYTKPPSREEMTKNQVSLSCLVKGFYPSDIAVEWESNGQPENNYKTTVPVLDSDGSFRLASYLTVDKSRWQQGNVFSCSVMHEALHNHYTQKSLSLSPGK
B9: 01E03R3 VHH Mono-Fc (Fc fusion)
chain: QVQLVESGGGLVQTGGSLRLSCAASGRTFSVYRVGWFRQAPGKEREFVAAVIWSGASTYKYAADSVKGRFTISRDNAENTVYLQMNSLKPEDTAVYYCAADPLGLPGPDVRVEGGYRHWGQGTLVTVSSSPAPELLGGPSVFLFPPKPKDTLMISRTPEVTCVVVDVSHEDPEVKFNWYVDGVEVHNAKTKPREEQYNSTYRVVSVLTVLHQDWLNGKEYKCKVSNKALPAPIEKTISKAKGQPREPQVYTKPPSREEMTKNQVSLSCLVKGFYPSDIAVEWESNGQPENNYKTTVPVLDSDGSFRLASYLTVDKSRWQQGNVFSCSVMHEALHNHYTQKSLSLSPGK
B10: 01F03R2LS VHH Mono-Fc (Fc fusion)
chain: EVQLVESGGGLVQAGDSLRLSCAASGRTGSSGAMGWFRQGPGKEREFVAALMWRNTVTYKYYEDSVKGRFTISRDNAKNTAYLQMNSLKPEDTAVYYCAADPDTYGDPRNSGAYDYWGQGTLVTVSSSPAPELLGGPSVFLFPPKPKDTLMISRTPEVTCVVVDVSHEDPEVKFNWYVDGVEVHNAKTKPREEQYNSTYRVVSVLTVLHQDWLNGKEYKCKVSNKALPAPIEKTISKAKGQPREPQVYTKPPSREEMTKNQVSLSCLVKGFYPSDIAVEWESNGQPENNYKTTVPVLDSDGSFRLASYLTVDKSRWQQGNVFSCSVMHEALHNHYTQKSLSLSPGK
B11: 03C05R3 VHH Mono-Fc (Fc fusion)
chain: EVQLVESGGGLVKAEGSLRLSCVASTSIASINVMGWYRQAPGKERELVARISGGGITHYAESVEGRFTISRDNAKNTVHLQMNGLKPEDTAAYYCKADVFASSGHVTTYWGQGTLVTVSSSPAPELLGGPSVFLFPPKPKDTLMISRTPEVTCVVVDVSHEDPEVKFNWYVDGVEVHNAKTKPREEQYNSTYRVVSVLTVLHQDWLNGKEYKCKVSNKALPAPIEKTISKAKGQPREPQVYTKPPSREEMTKNQVSLSCLVKGFYPSDIAVEWESNGQPENNYKTTVPVLDSDGSFRLASYLTVDKSRWQQGNVFSCSVMHEALHNHYTQKSLSLSPGK

Residue numbers refer to the chain shown, from its start.

T4 sequence (A0A2K5WMU9 entry or part of it): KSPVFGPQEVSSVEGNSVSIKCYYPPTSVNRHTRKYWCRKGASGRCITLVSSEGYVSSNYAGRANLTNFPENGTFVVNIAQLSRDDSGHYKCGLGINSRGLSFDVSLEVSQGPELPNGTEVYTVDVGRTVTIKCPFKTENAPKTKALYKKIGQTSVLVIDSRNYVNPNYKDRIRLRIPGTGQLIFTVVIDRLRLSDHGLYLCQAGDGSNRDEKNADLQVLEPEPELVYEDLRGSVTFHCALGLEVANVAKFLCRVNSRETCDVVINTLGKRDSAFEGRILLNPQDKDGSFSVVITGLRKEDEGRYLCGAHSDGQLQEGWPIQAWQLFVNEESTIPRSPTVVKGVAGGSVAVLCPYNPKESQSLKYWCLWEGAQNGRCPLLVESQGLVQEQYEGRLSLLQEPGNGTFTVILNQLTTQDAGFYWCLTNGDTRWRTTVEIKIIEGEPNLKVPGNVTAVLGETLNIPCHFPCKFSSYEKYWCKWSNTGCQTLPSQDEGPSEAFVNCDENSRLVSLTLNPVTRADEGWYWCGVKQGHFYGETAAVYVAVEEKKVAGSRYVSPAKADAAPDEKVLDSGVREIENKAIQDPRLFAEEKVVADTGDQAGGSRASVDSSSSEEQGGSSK

The first test deals with T1, rat pIgR extracellular domain. As to the kind of experiment: SPR, VHH captured by anti-Fc, ECD analyte. The method, boiled down: (§1)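 Anti-human Fc surface captured VHH at 0.5 ug/ml (~200-300 RU); running buffer HBSP with 100 ug/ml BSA, 30 μL/min. Single-cycle kinetics with ECD injected low to high from 30 nM in 3-fold dilutions, dissociation 30 min. Double-referenced data globally fit to 1:1 Langmuir model for kon, koff, KD.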
In general terms: Surface plasmon resonance follows binding to a sensor surface in real time, without labels.
By Kd is commonly meant the free concentration of one partner at which half of the binding sites on the other are occupied at equilibrium, for simple one-to-one binding. B1 came in with a Kd of 9.23 nM.
B2 showed a Kd of 8.51 nM.
B3 displayed a Kd of 14.1 nM.
B4 displayed a Kd of 4.27 nM.
The same measure, in the same setting: then B5, with 6.85 nM; and B6, with 4.71 nM.
In the case of B7, the Kd amounted to 1.36 nM.
B8 returned a Kd of 13.4 nM.
B9: the affinity, expressed as Kd, was 24.9 nM.
In turn, B10 showed a Kd of 8.05 nM.
Turning to B11, the Kd was determined as 1.83 nM.

For the next test, the target named is T2, mouse pIgR extracellular domain (ECD). As to the kind of experiment: SPR, VHH captured by anti-Fc, ECD analyte. The method, boiled down:
as §1
In the case of B1, the dissociation constant (Kd) worked out at 2.26 nM.
For B2, the Kd came to 3.48 nM.
Consider B3, for which the Kd is 4.76 nM.
B4 gave a Kd of 5.71 nM.
The molecule B5 came in with a Kd of 8.93 nM.
Still for that read-out and setting: then B6, with 9.2 nM; and B7, with 3.76 nM.
On the same count and under the same terms, then B8, with 4.47 nM; and B9, with 10.4 nM.
In the case of B10, the Kd was found to be 1.57 nM.
B11: the Kd is 9.02 nM.

For a further test, the target named is T3, human pIgR extracellular domain (ECD) (human, UniProt P01833 19-638).
T3 construct: Bought from R&D Systems (Cat 2717-PG-050); also called hpIgR ECD
T3 sequence (P01833 other isoform, or with tags, fused parts or gaps): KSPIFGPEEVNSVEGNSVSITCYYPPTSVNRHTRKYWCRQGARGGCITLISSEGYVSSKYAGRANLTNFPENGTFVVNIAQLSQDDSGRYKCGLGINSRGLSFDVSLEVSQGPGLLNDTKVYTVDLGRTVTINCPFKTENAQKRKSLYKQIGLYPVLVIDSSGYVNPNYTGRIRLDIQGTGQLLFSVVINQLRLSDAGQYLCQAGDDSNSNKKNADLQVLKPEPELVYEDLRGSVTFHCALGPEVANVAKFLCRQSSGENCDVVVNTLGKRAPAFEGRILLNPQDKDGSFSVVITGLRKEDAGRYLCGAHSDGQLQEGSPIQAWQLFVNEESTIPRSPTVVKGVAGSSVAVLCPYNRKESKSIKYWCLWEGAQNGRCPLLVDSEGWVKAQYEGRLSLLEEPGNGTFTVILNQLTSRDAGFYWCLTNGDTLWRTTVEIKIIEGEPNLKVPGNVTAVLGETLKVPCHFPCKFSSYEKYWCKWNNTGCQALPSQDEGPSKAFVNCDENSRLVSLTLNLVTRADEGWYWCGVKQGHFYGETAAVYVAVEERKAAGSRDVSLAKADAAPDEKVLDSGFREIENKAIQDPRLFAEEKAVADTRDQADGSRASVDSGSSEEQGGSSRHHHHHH
As to the kind of experiment: SPR, VHH captured by anti-Fc, ECD analyte. The method, boiled down: as §1
Molecule B1 registered a Kd of 29 nM.
B2: binding was put at a Kd of 58.7 nM.
Same read-out and setting: then B3, with 21.4 nM; and B4, with 5.77 nM; and B5, with 28.6 nM.
Take B6: binding was characterised by a dissociation constant (Kd) of 13.8 nM.
The same measure, in the same setting: the value for B7 was 5.37 nM; that for B8 was 20.2 nM; that for B9 was 2.95 nM.
In turn, B10 returned a Kd of 26.2 nM.
Take B11: binding was characterised by a dissociation constant (Kd) of 0.094 nM.

Another test addresses T4, cynomolgus monkey pIgR extracellular domain (cynomolgus monkey, UniProt A0A2K5WMU9 19-638).
T4 construct: extracellular domain
Put plainly: SPR, VHH captured by anti-Fc, ECD analyte. Summed up:
as §1
Take B1: binding was put at a Kd of 112 nM.
On to B2, for which the Kd was found to be 138 nM.
On to B3, for which binding was characterised by a dissociation constant (Kd) of 23 nM.
In the case of B4, the Kd worked out at 10 nM.
In turn, B5 had a Kd of 10.1 nM.
With B6, the Kd amounted to 5.94 nM.
Take B7: the Kd was 3.97 nM.
For B8, the Kd is 14.2 nM.
Turning to B9, the Kd was 6.14 nM.
In turn, B10 came in with a Kd of 34.4 nM.
Still for that read-out and setting: then B11, with 16.5 nM.

For the origin of these results see patent US20220112276A1 (Janssen / Centocor, published 2022).
